Assay results from publication doi:10.1101/2023.03.09.531850.

Molecular target: EcbAgaN (Escherichia coli long-B pAgo-associated nuclease) (Escherichia coli)
Assay: SEC-MALS

## EcbAgaN (Escherichia coli long-B pAgo-associated nuclease) (enzyme)
  stoichiometry N: 2
